Data from patent publication US20250171562A1 (ALK ABELL, published 2025).

Target: T1, recombinant human IgE (human, UniProt P01854-1 1-428)
T1 construct: made in-house (ALK); preloaded on immobilised FcεRIα in the displacement ELISA
Assay: IgE-FcεRIα displacement ELISA
In short: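 sdAbs at pM–μM were incubated 1 h on preformed complexes of 13 ng/ml recombinant human IgE with avi-tag-biotinylated human FcεRIα captured on streptavidin.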

T1 sequence (P01854 other isoform, or with tags, fused parts or gaps): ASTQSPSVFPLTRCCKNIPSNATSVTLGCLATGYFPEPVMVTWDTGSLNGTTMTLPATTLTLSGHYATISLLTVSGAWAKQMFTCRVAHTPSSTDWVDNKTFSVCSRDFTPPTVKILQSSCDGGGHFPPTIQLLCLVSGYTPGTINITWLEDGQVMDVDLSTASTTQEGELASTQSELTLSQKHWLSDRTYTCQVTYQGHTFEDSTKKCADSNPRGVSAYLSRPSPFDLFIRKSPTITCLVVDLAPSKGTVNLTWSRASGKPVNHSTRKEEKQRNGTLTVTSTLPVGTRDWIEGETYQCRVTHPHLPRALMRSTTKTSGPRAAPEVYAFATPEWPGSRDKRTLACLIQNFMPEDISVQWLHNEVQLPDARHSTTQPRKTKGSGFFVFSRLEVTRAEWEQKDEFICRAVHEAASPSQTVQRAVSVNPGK

Binder | Max effect | EC50
NIgG4B1A2(RS) (Fc fusion) chain 1: QVQLQESGGGLVQTGGSLRLSCAVHGRTFSNTGMGWFRQAPGNERQFVAIISPSGTSTYYADSVKGRFTISRDPAKNTVYLQMNSLKMDDTAVYYCAASYGSNWSTLRHQRRNEYDAWGQGTQVAVSRSGPPCPPCPAPEFLGGPSVFLFPPKPKDTLMISRTPEVTCVVVDVSQEDPEVQFNWYVDGVEVHNAKTKPREEQFNSTYRVVSVLTVLHQDWLNGKEYKCKVSNKGLPSSIEKTISKAKGQPREPQVYTLPPCQEEMTKNQVSLWCLVKGFYPSDIAVEWESNGQPENNYKTTPPVLDSDGSFFLYSRLTVDKSRWQEGNVFSCSVMHEALHNHYTQKSLSLSLGK chain 2: EVQLLESGGGLVQPGGSLRLSCAASGFRFGNYDMAWVRQAPGKRYEWVSSIDTGGDITHYADSVKGRFTISRDNAKNTLYLQMNSLRPEDTAEYWCATDEEYALGPNEFDYYGQGTLVTVSRSGPPCPPCPAPEFLGGPSVFLFPPKPKDTLMISRTPEVTCVVVDVSQEDPEVQFNWYVDGVEVHNAKTKPREEQFNSTYRVVSVLTVLHQDWLNGKEYKCKVSNKGLPSSIEKTISKAKGQPREPQVCTLPPSQEEMTKNQVSLSCAVKGFYPSDIAVEWESNGQPENNYKTTPPVLDSDGSFFLVSRLTVDKSRWQEGNVFSCSVMHEALHNHYTQKSLSLSLGK | > 95% | 
CIgG4B1A2(RS) (Fc fusion) chain 1: GPPCPPCPAPEFLGGPSVFLFPPKPKDTLMISRTPEVTCVVVDVSQEDPEVQFNWYVDGVEVHNAKTKPREEQFNSTYRVVSVLTVLHQDWLNGKEYKCKVSNKGLPSSIEKTISKAKGQPREPQVYTLPPCQEEMTKNQVSLWCLVKGFYPSDIAVEWESNGQPENNYKTTPPVLDSDGSFFLYSRLTVDKSRWQEGNVFSCSVMHEALHNHYTQKSLSLSLGKRSQVQLQESGGGLVQTGGSLRLSCAVHGRTFSNTGMGWFRQAPGNERQFVAIISPSGTSTYYADSVKGRFTISRDPAKNTVYLQMNSLKMDDTAVYYCAASYGSNWSTLRHQRRNEYDAWGQGTQVAVS chain 2: GPPCPPCPAPEFLGGPSVFLFPPKPKDTLMISRTPEVTCVVVDVSQEDPEVQFNWYVDGVEVHNAKTKPREEQFNSTYRVVSVLTVLHQDWLNGKEYKCKVSNKGLPSSIEKTISKAKGQPREPQVCTLPPSQEEMTKNQVSLSCAVKGFYPSDIAVEWESNGQPENNYKTTPPVLDSDGSFFLVSRLTVDKSRWQEGNVFSCSVMHEALHNHYTQKSLSLSLGKRSEVQLLESGGGLVQPGGSLRLSCAASGFRFGNYDMAWVRQAPGKRYEWVSSIDTGGDITHYADSVKGRFTISRDNAKNTLYLQMNSLRPEDTAEYWCATDEEYALGPNEFDYYGQGTLVTVS | > 95% | 5 nM
NIgG4B1A2(G4S)1 (Fc fusion) chain 1: QVQLQESGGGLVQTGGSLRLSCAVHGRTFSNTGMGWFRQAPGNERQFVAIISPSGTSTYYADSVKGRFTISRDPAKNTVYLQMNSLKMDDTAVYYCAASYGSNWSTLRHQRRNEYDAWGQGTQVAVSGGGGSGPPCPPCPAPEFLGGPSVFLFPPKPKDTLMISRTPEVTCVVVDVSQEDPEVQFNWYVDGVEVHNAKTKPREEQFNSTYRVVSVLTVLHQDWLNGKEYKCKVSNKGLPSSIEKTISKAKGQPREPQVYTLPPCQEEMTKNQVSLWCLVKGFYPSDIAVEWESNGQPENNYKTTPPVLDSDGSFFLYSRLTVDKSRWQEGNVFSCSVMHEALHNHYTQKSLSLSLGK chain 2: EVQLLESGGGLVQPGGSLRLSCAASGFRFGNYDMAWVRQAPGKRYEWVSSIDTGGDITHYADSVKGRFTISRDNAKNTLYLQMNSLRPEDTAEYWCATDEEYALGPNEFDYYGQGTLVTVSGGGGSGPPCPPCPAPEFLGGPSVFLFPPKPKDTLMISRTPEVTCVVVDVSQEDPEVQFNWYVDGVEVHNAKTKPREEQFNSTYRVVSVLTVLHQDWLNGKEYKCKVSNKGLPSSIEKTISKAKGQPREPQVCTLPPSQEEMTKNQVSLSCAVKGFYPSDIAVEWESNGQPENNYKTTPPVLDSDGSFFLVSRLTVDKSRWQEGNVFSCSVMHEALHNHYTQKSLSLSLGK | > 95% | 
NIgG4B1A2(G4S)2 (Fc fusion) chain 1: QVQLQESGGGLVQTGGSLRLSCAVHGRTFSNTGMGWFRQAPGNERQFVAIISPSGTSTYYADSVKGRFTISRDPAKNTVYLQMNSLKMDDTAVYYCAASYGSNWSTLRHQRRNEYDAWGQGTQVAVSGGGGSGGGGSGPPCPPCPAPEFLGGPSVFLFPPKPKDTLMISRTPEVTCVVVDVSQEDPEVQFNWYVDGVEVHNAKTKPREEQFNSTYRVVSVLTVLHQDWLNGKEYKCKVSNKGLPSSIEKTISKAKGQPREPQVYTLPPCQEEMTKNQVSLWCLVKGFYPSDIAVEWESNGQPENNYKTTPPVLDSDGSFFLYSRLTVDKSRWQEGNVFSCSVMHEALHNHYTQKSLSLSLGK chain 2: EVQLLESGGGLVQPGGSLRLSCAASGFRFGNYDMAWVRQAPGKRYEWVSSIDTGGDITHYADSVKGRFTISRDNAKNTLYLQMNSLRPEDTAEYWCATDEEYALGPNEFDYYGQGTLVTVSGGGGSGGGGSGPPCPPCPAPEFLGGPSVFLFPPKPKDTLMISRTPEVTCVVVDVSQEDPEVQFNWYVDGVEVHNAKTKPREEQFNSTYRVVSVLTVLHQDWLNGKEYKCKVSNKGLPSSIEKTISKAKGQPREPQVCTLPPSQEEMTKNQVSLSCAVKGFYPSDIAVEWESNGQPENNYKTTPPVLDSDGSFFLVSRLTVDKSRWQEGNVFSCSVMHEALHNHYTQKSLSLSLGK | > 95% | 
CIgE4A1A1(GS)2 (Fc fusion, also called CIgG4A1A1(G4S)2) chain 1: GPPCPPCPAPEFLGGPSVFLFPPKPKDTLMISRTPEVTCVVVDVSQEDPEVQFNWYVDGVEVHNAKTKPREEQFNSTYRVVSVLTVLHQDWLNGKEYKCKVSNKGLPSSIEKTISKAKGQPREPQVYTLPPCQEEMTKNQVSLWCLVKGFYPSDIAVEWESNGQPENNYKTTPPVLDSDGSFFLYSRLTVDKSRWQEGNVFSCSVMHEALHNHYTQKSLSLSLGKGGGGSGGGGSEVQLLESGGGLVQPGGSLRLSCAASGFTFGNYDMAWVRQAPGKRPEWVSSIDTGGDITHYADSVKGRFTISRDNAKNTLYLQMNSLRPEDTAVYWCATDEEYALGPNEFDYYGQGTLVTVSS chain 2: GPPCPPCPAPEFLGGPSVFLFPPKPKDTLMISRTPEVTCVVVDVSQEDPEVQFNWYVDGVEVHNAKTKPREEQFNSTYRVVSVLTVLHQDWLNGKEYKCKVSNKGLPSSIEKTISKAKGQPREPQVCTLPPSQEEMTKNQVSLSCAVKGFYPSDIAVEWESNGQPENNYKTTPPVLDSDGSFFLVSRLTVDKSRWQEGNVFSCSVMHEALHNHYTQKSLSLSLGKGGGGSGGGGSEVQLLESGGGLVQPGGSLRLSCAASGFTFGNYDMAWVRQAPGKRPEWVSSIDTGGDITHYADSVKGRFTISRDNAKNTLYLQMNSLRPEDTAVYWCATDEEYALGPNEFDYYGQGTLVTVSS | ~70% | 145 nM
CIgE4A1A1(GS3) (Fc fusion, also called CIgG4A1A1(G4S)3) chain 1: GPPCPPCPAPEFLGGPSVFLFPPKPKDTLMISRTPEVTCVVVDVSQEDPEVQFNWYVDGVEVHNAKTKPREEQFNSTYRVVSVLTVLHQDWLNGKEYKCKVSNKGLPSSIEKTISKAKGQPREPQVYTLPPCQEEMTKNQVSLWCLVKGFYPSDIAVEWESNGQPENNYKTTPPVLDSDGSFFLYSRLTVDKSRWQEGNVFSCSVMHEALHNHYTQKSLSLSLGKGGGGSGGGGSGGGGSEVQLLESGGGLVQPGGSLRLSCAASGFTFGNYDMAWVRQAPGKRPEWVSSIDTGGDITHYADSVKGRFTISRDNAKNTLYLQMNSLRPEDTAVYWCATDEEYALGPNEFDYYGQGTLVTVSS chain 2: GPPCPPCPAPEFLGGPSVFLFPPKPKDTLMISRTPEVTCVVVDVSQEDPEVQFNWYVDGVEVHNAKTKPREEQFNSTYRVVSVLTVLHQDWLNGKEYKCKVSNKGLPSSIEKTISKAKGQPREPQVCTLPPSQEEMTKNQVSLSCAVKGFYPSDIAVEWESNGQPENNYKTTPPVLDSDGSFFLVSRLTVDKSRWQEGNVFSCSVMHEALHNHYTQKSLSLSLGKGGGGSGGGGSGGGGSEVQLLESGGGLVQPGGSLRLSCAASGFTFGNYDMAWVRQAPGKRPEWVSSIDTGGDITHYADSVKGRFTISRDNAKNTLYLQMNSLRPEDTAVYWCATDEEYALGPNEFDYYGQGTLVTVSS | ~85% | 36 nM
CIgG4B1A2(G4S)1 (Fc fusion) chain 1: GPPCPPCPAPEFLGGPSVFLFPPKPKDTLMISRTPEVTCVVVDVSQEDPEVQFNWYVDGVEVHNAKTKPREEQFNSTYRVVSVLTVLHQDWLNGKEYKCKVSNKGLPSSIEKTISKAKGQPREPQVYTLPPCQEEMTKNQVSLWCLVKGFYPSDIAVEWESNGQPENNYKTTPPVLDSDGSFFLYSRLTVDKSRWQEGNVFSCSVMHEALHNHYTQKSLSLSLGKGGGGSQVQLQESGGGLVQTGGSLRLSCAVHGRTFSNTGMGWFRQAPGNERQFVAIISPSGTSTYYADSVKGRFTISRDPAKNTVYLQMNSLKMDDTAVYYCAASYGSNWSTLRHQRRNEYDAWGQGTQVAVS chain 2: GPPCPPCPAPEFLGGPSVFLFPPKPKDTLMISRTPEVTCVVVDVSQEDPEVQFNWYVDGVEVHNAKTKPREEQFNSTYRVVSVLTVLHQDWLNGKEYKCKVSNKGLPSSIEKTISKAKGQPREPQVCTLPPSQEEMTKNQVSLSCAVKGFYPSDIAVEWESNGQPENNYKTTPPVLDSDGSFFLVSRLTVDKSRWQEGNVFSCSVMHEALHNHYTQKSLSLSLGKGGGGSEVQLLESGGGLVQPGGSLRLSCAASGFRFGNYDMAWVRQAPGKRYEWVSSIDTGGDITHYADSVKGRFTISRDNAKNTLYLQMNSLRPEDTAEYWCATDEEYALGPNEFDYYGQGTLVTVS | > 95% | 3 nM
NIgG4B1A2(G4S)3 (Fc fusion) chain 1: QVQLQESGGGLVQTGGSLRLSCAVHGRTFSNTGMGWFRQAPGNERQFVAIISPSGTSTYYADSVKGRFTISRDPAKNTVYLQMNSLKMDDTAVYYCAASYGSNWSTLRHQRRNEYDAWGQGTQVAVSGGGGSGGGGSGGGGSGPPCPPCPAPEFLGGPSVFLFPPKPKDTLMISRTPEVTCVVVDVSQEDPEVQFNWYVDGVEVHNAKTKPREEQFNSTYRVVSVLTVLHQDWLNGKEYKCKVSNKGLPSSIEKTISKAKGQPREPQVYTLPPCQEEMTKNQVSLWCLVKGFYPSDIAVEWESNGQPENNYKTTPPVLDSDGSFFLYSRLTVDKSRWQEGNVFSCSVMHEALHNHYTQKSLSLSLGK chain 2: EVQLLESGGGLVQPGGSLRLSCAASGFRFGNYDMAWVRQAPGKRYEWVSSIDTGGDITHYADSVKGRFTISRDNAKNTLYLQMNSLRPEDTAEYWCATDEEYALGPNEFDYYGQGTLVTVSGGGGSGGGGSGGGGSGPPCPPCPAPEFLGGPSVFLFPPKPKDTLMISRTPEVTCVVVDVSQEDPEVQFNWYVDGVEVHNAKTKPREEQFNSTYRVVSVLTVLHQDWLNGKEYKCKVSNKGLPSSIEKTISKAKGQPREPQVCTLPPSQEEMTKNQVSLSCAVKGFYPSDIAVEWESNGQPENNYKTTPPVLDSDGSFFLVSRLTVDKSRWQEGNVFSCSVMHEALHNHYTQKSLSLSLGK | > 95% | 
